Data as given in patent publication US20170298146A1 (MODIQUEST B V, published 2017).
Non-standard residues stand in square brackets, D forms with d. No end group written: not given here. Cit = NC(=O)NCCC[C@H](N)C(=O)O

Columns and labels:
Test in all cases: peptide ELISA, 0.08 ug/well
huFibα XH = target: T1, huFibα XH (human, X at position 15 is citrulline; biotin label)
T1 peptide: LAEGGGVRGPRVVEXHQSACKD
Procedure: (§1) Biotin and citrulline-containing peptides derived from fibrinogen and vimentin were immobilized on NEUTRAVIDIN®-coated 96-well ELISA plates (0.3 μg/well). CFC-1 and CFC-0 were coated at the same concentration and served as positive and negative controls respectively for specific anti-citrulline reactivity and as coating controls. Non-coated wells were used to test for aspecific binding of the antibodies. […] Detection of bound anti-citrulline antibodies was performed by incubating the wells with rabbit-anti-human-HRP (1:2000) for one hour at RT followed by incubation with TMB substrate. The resulting OD (y-axis) is a measure for antibody binding.
(§2) Biotin-labeled and citrulline-containing fibrinogen and vimentin peptides (Table 5) were also tested for reactivity with the therapeutic antibodies. Peptides were coated on 96-well NEUTRAVIDIN®-ELISA plates.

msFibα XG = target: T2, msFibα XG (mouse, X at position 8 is citrulline; biotin label)
T2 peptide: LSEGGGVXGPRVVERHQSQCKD
Procedure: as §1, §2

msFibβ XG = target: T3, msFibβ XG (mouse, also: biotin label)
T3 peptide: EPTDSLDA[Cit]GHRPVDRR
Procedure: as §1, §2

msFibα XH = target: T4, msFibα XH (mouse, X at position 15 is citrulline; biotin label)
T4 peptide: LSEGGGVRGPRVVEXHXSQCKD
Procedure: as §1, §2

CFC-1 = target: T5, CFC-1
T5 construct: Positive control for anti-citrulline reactivity; also called cfc1 XG
Procedure: as §1, §2

huFibα XG = target: T6, huFibα XG (human, X at position 8 is citrulline; biotin label)
T6 peptide: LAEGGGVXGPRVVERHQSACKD
Procedure: as §1, §2

msVim XS/XL = target: T7, msVim XS/XL (mouse, also: biotin label)
T7 construct: also called mouse vimentin peptide
T7 peptide: YVT[Cit]SSAV[Cit]L[Cit]SSVP
Procedure: as §1, §2

B1: RhmAb2.102 (antibody, human IgG1, lambda)
heavy: not shown
light: QSVLTQPPSMSAAPGQKVTISCSGSSSNIGNNYVSWYQQVPGTAPKLLIYDDNKRPSGIPGRFSGSKSATSATLGITGLQAGDEADYYCGSWDDNLSVVLFGGGTKLTVLGQPKAAPSVTLFPPSSEELQANKATLVCLISDFYPGAVTVAWKADSSPVKAGVETTTPSKQSNNKYAASSYLSLTPEQWKSHRSYSCQVTHEGSTVEKTVAPTECS
notes: Human IgG1 lambda; also called Rhm2.102
B1 gave an OD (huFibα XH) of 0.08 OD, an OD (msFibα XG) of 0.237 OD and an OD (msFibβ XG) of 0.515 OD. The OD (msFibα XH) was 0.076 OD, the OD (CFC-1) was 3.03 OD and the OD (huFibα XG) was 0.186 OD. The OD (msVim XS/XL) was 0.515 OD.
